According to the supplement of paper PMC9112550, “Optimization of the antimicrobial peptide Bac7 by deep mutational scanning” (BMC Biology, 2022):

System: Escherichia coli TOP10
Assay: shrunken log2 fold change of peptide-encoding DNA abundance (4.5 h post-induction vs induction); higher = less antimicrobial activity (less host growth inhibition)
Conditions: time post-induction: 4.5 h; library: site-saturation at positions 5, 18, 19, 20
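Further: peptides expressed intracellularly from a pBAD plasmid library in pooled LB shake-flask culture, induced with 0.3% L-arabinose, DNA abundance read by NGS, three biological replicates, DESeq2 with apeglm shrinkage.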

| Sequence | shrunken log2 fold change |
| --- | --- |
| RRIRWRPPRLPRPRPRPYELPRP | -0.0904 |
| RRIRWRPPRLPRPRPRPYFDPRP | -0.811 |
| RRIRWRPPRLPRPRPRPYFEPRP | -0.483 |
| RRIRWRPPRLPRPRPRPYGYPRP | -0.345 |
| RRIRWRPPRLPRPRPRPYIPPRP | -1.15 |
| RRIRWRPPRLPRPRPRPYKDPRP | -0.33 |
| RRIRWRPPRLPRPRPRPYKIPRP | -0.286 |
| RRIRWRPPRLPRPRPRPYLRPRP | -0.37 |
| RRIRWRPPRLPRPRPRPYLYPRP | -0.216 |
| RRIRWRPPRLPRPRPRPYMWPRP | 0.00889 |
| RRIRWRPPRLPRPRPRPYNHPRP | -1.43 |
| RRIRWRPPRLPRPRPRPYNYPRP | -0.331 |
| RRIRWRPPRLPRPRPRPYQCPRP | -0.325 |
| RRIRWRPPRLPRPRPRPYSQPRP | -0.425 |
| RRIRWRPPRLPRPRPRPYTNPRP | -0.993 |
| RRIRWRPPRLPRPRPRPYTSPRP | -0.0806 |
| RRIRWRPPRLPRPRPRPYVFPRP | -0.142 |
| RRIRYRPPRLPRPRPRPAALPRP | -0.478 |
| RRIRYRPPRLPRPRPRPACDPRP | -0.00452 |
| RRIRYRPPRLPRPRPRPACMPRP | -0.0495 |
| RRIRYRPPRLPRPRPRPACSPRP | -0.447 |
| RRIRYRPPRLPRPRPRPAEQPRP | 0.0374 |
| RRIRYRPPRLPRPRPRPAFKPRP | -0.145 |
| RRIRYRPPRLPRPRPRPAFVPRP | -0.178 |
| RRIRYRPPRLPRPRPRPAGYPRP | 0.0815 |

| Sequence | shrunken log2 fold change |
| --- | --- |
| RRIRYRPPRLPRPRPRPAIFPRP | -0.0382 |
| RRIRYRPPRLPRPRPRPALEPRP | -0.486 |
| RRIRYRPPRLPRPRPRPANDPRP | -0.0297 |
| RRIRYRPPRLPRPRPRPAPAPRP | 0.0272 |
| RRIRYRPPRLPRPRPRPARGPRP | 0.515 |
| RRIRYRPPRLPRPRPRPASDPRP | -0.348 |
| RRIRYRPPRLPRPRPRPASHPRP | -1 |
| RRIRYRPPRLPRPRPRPASVPRP | -0.256 |
| RRIRYRPPRLPRPRPRPATLPRP | -0.307 |
| RRIRYRPPRLPRPRPRPAVRPRP | -0.0403 |
| RRIRYRPPRLPRPRPRPCAPPRP | -0.329 |
| RRIRYRPPRLPRPRPRPCERPRP | 0.0112 |
| RRIRYRPPRLPRPRPRPCFQPRP | -0.267 |
| RRIRYRPPRLPRPRPRPCFWPRP | -0.136 |
| RRIRYRPPRLPRPRPRPCGMPRP | -0.217 |
| RRIRYRPPRLPRPRPRPCGSPRP | 0.00387 |
| RRIRYRPPRLPRPRPRPCHRPRP | -0.169 |
| RRIRYRPPRLPRPRPRPCIEPRP | -0.0017 |
| RRIRYRPPRLPRPRPRPCIHPRP | -0.0152 |
| RRIRYRPPRLPRPRPRPCIMPRP | -3.3 |
| RRIRYRPPRLPRPRPRPCITPRP | -0.00269 |
| RRIRYRPPRLPRPRPRPCLIPRP | -0.00819 |
| RRIRYRPPRLPRPRPRPCLNPRP | -0.216 |
| RRIRYRPPRLPRPRPRPCLVPRP | -0.0874 |
| RRIRYRPPRLPRPRPRPCNCPRP | -0.0018 |

| Sequence | shrunken log2 fold change |
| --- | --- |
| RRIRYRPPRLPRPRPRPCNSPRP | -0.168 |
| RRIRYRPPRLPRPRPRPCNWPRP | -0.0748 |
| RRIRYRPPRLPRPRPRPCPVPRP | -0.143 |
| RRIRYRPPRLPRPRPRPCPWPRP | -0.227 |
| RRIRYRPPRLPRPRPRPCQQPRP | -0.163 |
| RRIRYRPPRLPRPRPRPCSFPRP | -0.0048 |
| RRIRYRPPRLPRPRPRPCSTPRP | -0.212 |
| RRIRYRPPRLPRPRPRPCTCPRP | 0.0744 |
| RRIRYRPPRLPRPRPRPCTPPRP | -1.14 |
| RRIRYRPPRLPRPRPRPCYHPRP | -0.289 |
| RRIRYRPPRLPRPRPRPDAKPRP | -0.118 |
| RRIRYRPPRLPRPRPRPDCPPRP | -0.179 |
| RRIRYRPPRLPRPRPRPDDPPRP | -0.239 |
| RRIRYRPPRLPRPRPRPDGSPRP | -0.317 |
| RRIRYRPPRLPRPRPRPDHWPRP | -0.166 |
| RRIRYRPPRLPRPRPRPDIQPRP | -0.349 |
| RRIRYRPPRLPRPRPRPDIVPRP | -0.295 |
| RRIRYRPPRLPRPRPRPDLVPRP | -0.0421 |
| RRIRYRPPRLPRPRPRPDMCPRP | -0.0185 |
| RRIRYRPPRLPRPRPRPDNCPRP | -0.0299 |
| RRIRYRPPRLPRPRPRPDNMPRP | -0.0223 |
| RRIRYRPPRLPRPRPRPDPDPRP | -0.162 |
| RRIRYRPPRLPRPRPRPDPIPRP | -0.168 |
| RRIRYRPPRLPRPRPRPDREPRP | -0.15 |
| RRIRYRPPRLPRPRPRPDRIPRP | -0.00973 |

| Sequence | shrunken log2 fold change |
| --- | --- |
| RRIRYRPPRLPRPRPRPDRLPRP | -0.216 |
| RRIRYRPPRLPRPRPRPDSCPRP | 0.0675 |
| RRIRYRPPRLPRPRPRPDSGPRP | -0.0811 |
| RRIRYRPPRLPRPRPRPDSKPRP | -0.352 |
| RRIRYRPPRLPRPRPRPDSLPRP | -0.142 |
| RRIRYRPPRLPRPRPRPDTKPRP | -0.0212 |
| RRIRYRPPRLPRPRPRPDVFPRP | -0.0152 |
| RRIRYRPPRLPRPRPRPDVMPRP | 0.0199 |
| RRIRYRPPRLPRPRPRPDVRPRP | -0.0526 |
| RRIRYRPPRLPRPRPRPDVYPRP | -0.0212 |
| RRIRYRPPRLPRPRPRPDWAPRP | 0.0528 |
| RRIRYRPPRLPRPRPRPDWNPRP | -0.428 |
| RRIRYRPPRLPRPRPRPDYHPRP | -0.0195 |
| RRIRYRPPRLPRPRPRPDYNPRP | -0.475 |
| RRIRYRPPRLPRPRPRPEAFPRP | -0.00226 |
| RRIRYRPPRLPRPRPRPECGPRP | -0.114 |
| RRIRYRPPRLPRPRPRPEDSPRP | -0.0108 |
| RRIRYRPPRLPRPRPRPEEIPRP | -0.00965 |
| RRIRYRPPRLPRPRPRPEGDPRP | -0.00396 |
| RRIRYRPPRLPRPRPRPEIDPRP | -0.0347 |
| RRIRYRPPRLPRPRPRPEIEPRP | -0.0892 |
| RRIRYRPPRLPRPRPRPEIHPRP | -0.224 |
| RRIRYRPPRLPRPRPRPELTPRP | 0.075 |
| RRIRYRPPRLPRPRPRPELYPRP | -0.106 |
| RRIRYRPPRLPRPRPRPEMEPRP | -0.0352 |

| Sequence | shrunken log2 fold change |
| --- | --- |
| RRIRYRPPRLPRPRPRPENTPRP | -0.879 |
| RRIRYRPPRLPRPRPRPEQQPRP | -0.0122 |
| RRIRYRPPRLPRPRPRPERDPRP | 0.0217 |
| RRIRYRPPRLPRPRPRPETIPRP | -0.495 |
| RRIRYRPPRLPRPRPRPEVPPRP | -0.0684 |
| RRIRYRPPRLPRPRPRPEWGPRP | -0.169 |
| RRIRYRPPRLPRPRPRPEWSPRP | -0.0724 |
| RRIRYRPPRLPRPRPRPEYTPRP | -0.542 |
| RRIRYRPPRLPRPRPRPFACPRP | 0.0731 |
| RRIRYRPPRLPRPRPRPFCIPRP | -1.5 |
| RRIRYRPPRLPRPRPRPFDQPRP | -0.401 |
| RRIRYRPPRLPRPRPRPFEYPRP | -0.0492 |
| RRIRYRPPRLPRPRPRPFFAPRP | -0.18 |
| RRIRYRPPRLPRPRPRPFFEPRP | -0.482 |
| RRIRYRPPRLPRPRPRPFGYPRP | -1.39 |
| RRIRYRPPRLPRPRPRPFHSPRP | -0.0599 |
| RRIRYRPPRLPRPRPRPFHTPRP | -0.128 |
| RRIRYRPPRLPRPRPRPFIQPRP | -0.126 |
| RRIRYRPPRLPRPRPRPFKFPRP | 0.0599 |
| RRIRYRPPRLPRPRPRPFKWPRP | -0.278 |
| RRIRYRPPRLPRPRPRPFLQPRP | -0.218 |
| RRIRYRPPRLPRPRPRPFMAPRP | -0.773 |
| RRIRYRPPRLPRPRPRPFMNPRP | -0.0199 |
| RRIRYRPPRLPRPRPRPFMQPRP | -0.403 |
| RRIRYRPPRLPRPRPRPFMTPRP | -2.5 |

| Sequence | shrunken log2 fold change |
| --- | --- |
| RRIRYRPPRLPRPRPRPFNHPRP | -0.732 |
| RRIRYRPPRLPRPRPRPFPFPRP | -0.271 |
| RRIRYRPPRLPRPRPRPFQPPRP | -0.375 |
| RRIRYRPPRLPRPRPRPFRVPRP | -0.0371 |
| RRIRYRPPRLPRPRPRPFTPPRP | -0.889 |
| RRIRYRPPRLPRPRPRPFVEPRP | -1.17 |
| RRIRYRPPRLPRPRPRPFYPPRP | -0.747 |
| RRIRYRPPRLPRPRPRPGCIPRP | -0.819 |
| RRIRYRPPRLPRPRPRPGCYPRP | -0.8 |
| RRIRYRPPRLPRPRPRPGFQPRP | -1.11 |
| RRIRYRPPRLPRPRPRPGFVPRP | 0.0168 |
| RRIRYRPPRLPRPRPRPGGFPRP | -0.169 |
| RRIRYRPPRLPRPRPRPGGGPRP | 0.64 |
| RRIRYRPPRLPRPRPRPGGSPRP | -0.017 |
| RRIRYRPPRLPRPRPRPGHMPRP | -0.195 |
| RRIRYRPPRLPRPRPRPGHWPRP | -0.135 |
| RRIRYRPPRLPRPRPRPGIDPRP | -0.16 |
| RRIRYRPPRLPRPRPRPGIWPRP | 0.138 |
| RRIRYRPPRLPRPRPRPGKHPRP | 0.0354 |
| RRIRYRPPRLPRPRPRPGKSPRP | 0.0131 |
| RRIRYRPPRLPRPRPRPGLPPRP | 0.107 |
| RRIRYRPPRLPRPRPRPGMEPRP | -0.0379 |
| RRIRYRPPRLPRPRPRPGNQPRP | -0.252 |
| RRIRYRPPRLPRPRPRPGNWPRP | -0.163 |
| RRIRYRPPRLPRPRPRPGQAPRP | 0.0475 |
